From doi:10.1101/2025.02.14.637896 (bioRxiv, 2025)

Biological target: the molecule itself
Test: SEC

B1: GIRK2 R92F channel (G protein-gated inwardly rectifying potassium channel 2, R92F substitution) (natural protein, mouse, UniProt P48542 1-425, looked up)
chain: MTMAKLTESMTNVLEGDSMDQDVESPVAIHQPKLPKQARDDLPRHISRDRTKRKIQRYVRKDGKCNVHHGNVRETYRYLTDIFTTLVDLKWFFNLLIFVMVYTVTWLFFGMIWWLIAYIRGDMDHIEDPSWTPCVTNLNGFVSAFLFSIETETTIGYGYRVITDKCPEGIILLLIQSVLGSIVNAFMVGCMFVKISQPKKRAETLVFSTHAVISMRDGKLCLMFRVGDLRNSHIVEASIRAKLIKSKQTSEGEFIPLNQSDINVGYYTGDDRLFLVSPLIISHEINQQSPFWEISKAQLPKEELEIVVILEGIVEATGMTCQARSSYITSEILWGYRFTPVLTMEDGFYEVDYNSFHETYETSTPSLSAKELAELANRAEVPLSWSVSSKLNQHAELETEEEEKNPEELTERNGDVANLENESKV
- stoichiometry N: 4
